The values below come from article PMC11267363, “Supramolecular Nanofibers Ameliorate Bleomycin‐Induced Pulmonary Fibrosis by Restoring Autophagy” (Advanced Science, 2024).

The target of the assay is T1, Recombinant human TRB3 (tribbles homolog 3) (human, UniProt Q96RU7 1-358).
T1 construct: pseudokinase tribbles homolog 3 (TRB3), human, recombinant; as I recall, the catalogue suffix H09B stands for a His and GST tagged protein made in baculovirus-infected insect cells (surmise); also called TRB3 protein; human TRB3 protein; source: bought: Sino Biological (10731-H09B)
T1 sequence (looked up): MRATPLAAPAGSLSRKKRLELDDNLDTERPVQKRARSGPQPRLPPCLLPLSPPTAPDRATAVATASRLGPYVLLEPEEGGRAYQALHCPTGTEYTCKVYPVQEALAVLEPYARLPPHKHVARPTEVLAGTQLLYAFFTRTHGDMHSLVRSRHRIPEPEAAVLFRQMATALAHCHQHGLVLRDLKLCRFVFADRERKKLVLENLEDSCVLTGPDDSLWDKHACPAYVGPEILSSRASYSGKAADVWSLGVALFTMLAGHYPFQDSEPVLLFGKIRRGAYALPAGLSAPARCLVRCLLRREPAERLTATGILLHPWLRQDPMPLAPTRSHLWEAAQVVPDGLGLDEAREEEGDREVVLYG
Briefly: MST; Monolith NT.115; Ac-GFFY-A2 or A2 against human TRB3 protein or BSA (negative control); which partner was labelled is not told. The following applies: both partners purified.

B1: A2 peptide (TRB3-binding peptide fragment derived from p62) (peptide)
peptide: GGWLTRLLQTK
notes: also called non-self-assembling peptide A2; source: synthetic peptide (SPPS, purified by HPLC)
Turning to B1, the Kd – broadly, the constant that tells how readily two partners part at equilibrium – was ~3.21 µM.
